Assay results reported in the Immune Epitope Database (IEDB).

Assays:
[1] = molecular target: HLA-B*45:06; experiment: IEDB peptide-MHC binding, purified MHC/competitive/fluorescence; filed as Kd, often an IC50 or EC50 that approximates it; ≥ and ≤ were set here for values at or beyond the usual limits of such assays; conditions: source organism: Salmonella enterica subsp. enterica serovar Typhimurium str. LT2
[2] = molecular target: HLA-B*15:42; experiment: as above; conditions: source organism: Salmonella enterica subsp. enterica serovar Typhimurium str. LT2
[3] = molecular target: HLA-B*15:01; experiment: as above; conditions: source organism: Salmonella enterica subsp. enterica serovar Typhimurium str. LT2
[4] = molecular target: HLA-B*15:17; experiment: as above; conditions: source organism: Salmonella enterica subsp. enterica serovar Typhimurium str. LT2
[5] = molecular target: HLA-A*68:23; experiment: as above; conditions: source organism: Salmonella enterica subsp. enterica serovar Typhimurium str. LT2
[6] = molecular target: HLA-B*83:01; experiment: as above; conditions: source organism: Salmonella enterica subsp. enterica serovar Typhimurium str. LT2
[7] = molecular target: HLA-A*02:03; experiment: as above; conditions: source organism: Salmonella enterica subsp. enterica serovar Typhimurium str. LT2
[8] = molecular target: HLA-A*02:06; experiment: as above; conditions: source organism: Salmonella enterica subsp. enterica serovar Typhimurium str. LT2
[9] = molecular target: HLA-A*02:10; experiment: IEDB peptide-MHC binding, purified MHC/direct/fluorescence; filed as Kd, often an IC50 or EC50 that approximates it; ≥ and ≤ were set here for values at or beyond the usual limits of such assays; conditions: source organism: Salmonella enterica subsp. enterica serovar Typhimurium str. LT2
[10] = molecular target: HLA-A*02:01; experiment: as above; conditions: source organism: Salmonella enterica

FPASHMATY
Kd [1]: ≥ 5000 nM
Kd [2]: ≥ 5000 nM
Kd [3]: 334 nM
Kd [4]: ≥ 20000 nM
Kd [5]: 6 nM
Kd [6]: 220 nM
Kd [7]: ≥ 20000 nM
Kd [8]: 1290 nM
Kd [9]: ≥ 20000 nM
Kd [10]: ≥ 20000 nM
